Results on three molecules are retold here after paper PMC10045489 (2023).

To fix the notation:
B1: H11-H4 nanobody (VHH)
VHH: QVQLVESGGGLMQAGGSLRLSCAVSGRTFSTAAMGWFRQAPGKEREFVAAIRWSGGSAYYADSVKGRFTISRDKAKNTVYLQMNSLKYEDTAVYYCAQTHYVSYLLSDYATWPYDYWGQGTQVTVSS
B2: ab8 nanobody (VHH)
VHH: QVQLVESGGGLVQPGGSLRLSCAASGFTFDDYAMSWVRQAPGKGLEWIGRMYNNGRTSYNPSLKSLVTISRDNSKNTLYLQMNSLRAEDTATYYCARDNLGYRPSENLYGMDVWGQGTQVTVSS
B3: Nb20 nanobody (VHH)
VHH: QVQLVESGGGLVQAGGSLRLSCAVSGAGAHRVGWFRRAPGKEREFVAAIGASGGMTNYLDSVKGRFTISRDNAKNTIYLQMNSLKPQDTAVYYCAARDIETAEYIYWGQGTQVTVSS

This test addresses full-length His-tagged SARS-CoV-2 spike protein (wild-type) (SARS-CoV-2, UniProt P0DTC2). The experiment in a line: BLI.
For orientation: Kd means the free concentration of one partner at which half of the binding sites on the other are occupied at equilibrium, for simple one-to-one binding. Read a high Kd as lower affinity. On to B1, for which the Kd was ~61 nM.

On to B2, for which the Kd is ~120 nM. With B3, the Kd was ~0.72 nM.
